Legend:
tnr6b_human TNRC6B = tnr6b_human TNRC6B (UniProt Q9UPQ9)
tnr6b_mouse Tnrc6b = tnr6b_mouse Tnrc6b (UniProt Q8BKI2)
tnr6c_human TNRC6C = tnr6c_human TNRC6C (UniProt Q9HCJ0)

Measured: effect of a mutation on the interaction

Chain of Protein argonaute-2 (Homo sapiens), Q9UKV8 F470V;F505V (Q9UKV8 whole entry F470V/F505V): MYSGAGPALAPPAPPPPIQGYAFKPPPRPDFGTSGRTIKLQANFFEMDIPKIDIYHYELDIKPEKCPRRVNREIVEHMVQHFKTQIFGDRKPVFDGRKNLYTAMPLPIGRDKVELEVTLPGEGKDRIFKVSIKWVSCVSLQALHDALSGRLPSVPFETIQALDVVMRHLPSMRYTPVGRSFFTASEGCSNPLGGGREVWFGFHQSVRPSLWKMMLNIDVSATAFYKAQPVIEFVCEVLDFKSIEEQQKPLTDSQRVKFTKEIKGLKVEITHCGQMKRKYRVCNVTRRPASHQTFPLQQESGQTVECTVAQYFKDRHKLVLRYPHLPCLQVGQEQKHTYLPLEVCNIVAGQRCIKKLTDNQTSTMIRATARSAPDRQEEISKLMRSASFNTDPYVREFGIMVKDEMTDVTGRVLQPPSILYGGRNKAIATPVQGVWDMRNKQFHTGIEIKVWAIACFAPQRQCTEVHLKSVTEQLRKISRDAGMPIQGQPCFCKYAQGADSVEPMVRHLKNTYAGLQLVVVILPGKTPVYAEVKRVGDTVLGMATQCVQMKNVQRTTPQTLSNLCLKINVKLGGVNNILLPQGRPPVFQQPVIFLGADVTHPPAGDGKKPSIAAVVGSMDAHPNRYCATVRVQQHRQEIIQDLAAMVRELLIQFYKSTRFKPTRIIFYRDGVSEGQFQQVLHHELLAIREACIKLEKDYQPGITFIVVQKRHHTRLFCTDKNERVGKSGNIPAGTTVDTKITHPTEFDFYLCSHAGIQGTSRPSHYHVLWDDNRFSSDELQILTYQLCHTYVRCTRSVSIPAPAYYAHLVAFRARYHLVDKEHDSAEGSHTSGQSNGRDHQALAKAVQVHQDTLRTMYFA
Chain of tnr6b_mouse Tnrc6b (Q8BKI2 whole entry): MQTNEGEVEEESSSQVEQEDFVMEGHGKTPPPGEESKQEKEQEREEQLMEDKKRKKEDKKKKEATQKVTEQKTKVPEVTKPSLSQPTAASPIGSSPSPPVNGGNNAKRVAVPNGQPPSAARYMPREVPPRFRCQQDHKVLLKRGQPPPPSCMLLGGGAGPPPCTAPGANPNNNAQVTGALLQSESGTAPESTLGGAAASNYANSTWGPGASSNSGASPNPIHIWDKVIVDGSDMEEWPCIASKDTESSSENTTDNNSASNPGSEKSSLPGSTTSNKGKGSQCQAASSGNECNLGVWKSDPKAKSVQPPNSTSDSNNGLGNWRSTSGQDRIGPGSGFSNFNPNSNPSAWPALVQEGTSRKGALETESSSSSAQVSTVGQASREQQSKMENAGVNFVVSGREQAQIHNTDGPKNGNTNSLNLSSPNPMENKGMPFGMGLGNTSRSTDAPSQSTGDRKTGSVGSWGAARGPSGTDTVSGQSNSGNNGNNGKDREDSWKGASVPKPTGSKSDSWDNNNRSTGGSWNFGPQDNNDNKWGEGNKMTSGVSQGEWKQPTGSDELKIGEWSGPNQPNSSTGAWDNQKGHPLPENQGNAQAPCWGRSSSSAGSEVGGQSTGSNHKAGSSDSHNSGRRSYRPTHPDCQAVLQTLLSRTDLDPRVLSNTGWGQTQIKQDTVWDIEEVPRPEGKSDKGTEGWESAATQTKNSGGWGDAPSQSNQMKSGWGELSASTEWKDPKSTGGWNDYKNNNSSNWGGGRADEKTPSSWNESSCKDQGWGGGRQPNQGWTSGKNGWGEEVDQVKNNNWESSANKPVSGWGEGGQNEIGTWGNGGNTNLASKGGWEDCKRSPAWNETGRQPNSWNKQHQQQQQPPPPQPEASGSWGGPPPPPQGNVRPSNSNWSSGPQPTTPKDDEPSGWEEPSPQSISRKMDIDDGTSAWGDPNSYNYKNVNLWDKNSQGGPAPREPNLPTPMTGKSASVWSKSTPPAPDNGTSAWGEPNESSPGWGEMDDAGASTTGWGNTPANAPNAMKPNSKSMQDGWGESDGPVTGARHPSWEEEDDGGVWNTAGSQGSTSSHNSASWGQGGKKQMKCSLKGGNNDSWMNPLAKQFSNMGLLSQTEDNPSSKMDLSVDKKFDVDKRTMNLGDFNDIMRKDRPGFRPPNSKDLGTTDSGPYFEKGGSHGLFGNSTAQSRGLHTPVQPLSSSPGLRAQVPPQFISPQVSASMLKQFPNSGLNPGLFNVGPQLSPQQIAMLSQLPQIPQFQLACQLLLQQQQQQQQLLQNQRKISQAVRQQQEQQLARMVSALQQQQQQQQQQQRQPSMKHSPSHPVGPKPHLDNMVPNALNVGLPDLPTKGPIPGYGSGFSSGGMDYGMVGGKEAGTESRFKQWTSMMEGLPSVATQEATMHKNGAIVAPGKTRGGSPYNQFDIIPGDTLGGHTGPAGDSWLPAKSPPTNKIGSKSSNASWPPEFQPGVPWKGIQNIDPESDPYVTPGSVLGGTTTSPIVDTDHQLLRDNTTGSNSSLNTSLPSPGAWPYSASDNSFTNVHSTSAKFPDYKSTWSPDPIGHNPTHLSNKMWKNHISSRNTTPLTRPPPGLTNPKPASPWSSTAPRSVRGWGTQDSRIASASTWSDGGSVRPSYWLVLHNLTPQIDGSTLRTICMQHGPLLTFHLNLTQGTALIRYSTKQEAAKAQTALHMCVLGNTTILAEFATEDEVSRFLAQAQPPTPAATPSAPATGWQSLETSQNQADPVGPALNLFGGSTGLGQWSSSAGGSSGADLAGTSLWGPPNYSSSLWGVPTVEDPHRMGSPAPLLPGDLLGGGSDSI
Chain of tnr6b_human TNRC6B (Q9UPQ9 whole entry): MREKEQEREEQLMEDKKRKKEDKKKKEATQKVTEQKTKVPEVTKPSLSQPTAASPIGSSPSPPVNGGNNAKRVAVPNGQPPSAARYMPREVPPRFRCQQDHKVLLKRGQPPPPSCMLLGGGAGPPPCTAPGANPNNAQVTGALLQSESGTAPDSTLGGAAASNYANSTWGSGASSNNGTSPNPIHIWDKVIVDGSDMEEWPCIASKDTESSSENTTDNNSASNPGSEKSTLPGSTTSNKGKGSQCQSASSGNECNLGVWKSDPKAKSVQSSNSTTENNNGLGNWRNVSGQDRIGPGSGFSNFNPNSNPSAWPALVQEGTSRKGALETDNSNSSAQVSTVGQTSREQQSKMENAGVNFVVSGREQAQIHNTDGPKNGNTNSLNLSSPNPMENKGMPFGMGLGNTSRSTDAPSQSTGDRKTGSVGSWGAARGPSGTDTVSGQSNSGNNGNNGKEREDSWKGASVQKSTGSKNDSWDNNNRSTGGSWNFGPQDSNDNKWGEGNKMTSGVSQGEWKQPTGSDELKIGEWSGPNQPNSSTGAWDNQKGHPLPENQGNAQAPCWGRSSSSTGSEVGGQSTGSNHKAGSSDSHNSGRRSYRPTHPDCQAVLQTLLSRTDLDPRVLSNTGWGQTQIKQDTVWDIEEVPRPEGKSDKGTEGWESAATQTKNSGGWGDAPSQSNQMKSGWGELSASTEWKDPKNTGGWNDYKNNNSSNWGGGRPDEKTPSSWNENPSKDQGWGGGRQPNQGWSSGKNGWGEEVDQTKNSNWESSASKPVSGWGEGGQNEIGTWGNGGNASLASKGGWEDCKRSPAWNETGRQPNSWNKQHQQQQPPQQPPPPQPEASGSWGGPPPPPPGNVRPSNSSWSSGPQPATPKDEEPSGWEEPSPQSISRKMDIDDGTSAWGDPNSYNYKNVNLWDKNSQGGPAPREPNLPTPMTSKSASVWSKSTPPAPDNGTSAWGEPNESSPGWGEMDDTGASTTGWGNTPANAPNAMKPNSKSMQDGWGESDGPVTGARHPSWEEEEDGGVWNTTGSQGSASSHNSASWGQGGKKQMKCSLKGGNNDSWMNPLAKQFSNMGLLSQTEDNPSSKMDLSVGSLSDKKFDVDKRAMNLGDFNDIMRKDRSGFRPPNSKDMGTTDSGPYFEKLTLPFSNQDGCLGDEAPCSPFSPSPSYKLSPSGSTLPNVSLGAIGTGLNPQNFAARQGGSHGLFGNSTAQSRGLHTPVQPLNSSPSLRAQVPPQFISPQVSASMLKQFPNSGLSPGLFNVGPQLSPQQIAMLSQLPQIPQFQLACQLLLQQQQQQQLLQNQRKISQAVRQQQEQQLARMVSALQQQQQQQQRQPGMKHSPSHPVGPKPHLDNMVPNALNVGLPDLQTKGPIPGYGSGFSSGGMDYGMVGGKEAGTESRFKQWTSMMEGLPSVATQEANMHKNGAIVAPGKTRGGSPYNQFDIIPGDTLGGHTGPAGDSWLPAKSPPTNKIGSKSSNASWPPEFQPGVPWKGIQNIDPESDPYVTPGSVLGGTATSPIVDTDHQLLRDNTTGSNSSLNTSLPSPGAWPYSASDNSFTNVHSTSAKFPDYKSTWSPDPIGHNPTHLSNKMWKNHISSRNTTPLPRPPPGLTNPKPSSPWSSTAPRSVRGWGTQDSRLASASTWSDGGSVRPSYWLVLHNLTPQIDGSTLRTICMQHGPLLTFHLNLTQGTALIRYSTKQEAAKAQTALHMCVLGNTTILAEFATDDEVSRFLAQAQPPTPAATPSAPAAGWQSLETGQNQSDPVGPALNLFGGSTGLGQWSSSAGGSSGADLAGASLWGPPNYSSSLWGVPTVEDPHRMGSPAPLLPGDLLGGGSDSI

Protein argonaute-2 (Homo sapiens), Q9UKV8 F470V;F505V
disrupting interaction: all assays above

— IntAct's records for PubMed 19838187
